Consider one molecule from patent US20150166647A1 (VLST, published 2015).

In one test the target is T1, mouse RANTES/CCL5 (mouse, UniProt P30882 24-91).
T1 construct: also called muRANTES
The test is described as follows: MSD electrochemiluminescence, chemokine coated at 1 µg/mL.

In the next test the target is T2, mouse MIP-1α/CCL3 (mouse, UniProt P10855 24-92).
T2 construct: also called muMIP-1α
T2 sequence: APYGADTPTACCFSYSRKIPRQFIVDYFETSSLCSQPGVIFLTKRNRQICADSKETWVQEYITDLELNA
The test is described as above.

Another test has as its target T3, mouse MIP-1β/CCL4 (mouse, UniProt P14097 24-92).
T3 construct: also called muMIP-1β
T3 sequence: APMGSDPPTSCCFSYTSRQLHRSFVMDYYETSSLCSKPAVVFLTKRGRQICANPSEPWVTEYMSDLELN
The test is described as above.

The target in a further test is T4, human HCC-2/MIP-1δ/CCL15 (human, UniProt Q16663 46-113).
T4 sequence: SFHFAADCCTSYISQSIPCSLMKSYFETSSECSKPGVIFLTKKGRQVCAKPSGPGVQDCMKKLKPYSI
Briefly: MSD electrochemiluminescence assay; chemokine coated at 1 µg/mL, 18P7E as unquantitated hybridoma supernatant; background = BSA.

The target in another test is T5, human MPIF-1/CCL23 (human, UniProt P55773 46-120).
T5 sequence: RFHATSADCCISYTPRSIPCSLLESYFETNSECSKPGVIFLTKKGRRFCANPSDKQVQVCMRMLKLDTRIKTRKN
The test is described as above.

The next test addresses T6, IL-8.
T6 construct: also called IL-8/CXCL8; CXCL8
The test is described as above.

Another test deals with T7, SDF.
T7 construct: also called SDF-1/CXCL12; CXCL12
T7 sequence (chemokine, as listed by the source): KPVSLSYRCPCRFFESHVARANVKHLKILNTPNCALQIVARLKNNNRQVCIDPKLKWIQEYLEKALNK
The description is as above.

Another test deals with T8, MCP-4.
T8 construct: also called MCP-4/CCL13; CCL13
T8 sequence (chemokine, as listed by the source): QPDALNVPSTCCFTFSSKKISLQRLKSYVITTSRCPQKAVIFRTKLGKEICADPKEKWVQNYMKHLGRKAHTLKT
The description is as above.

The target in another test is T9, Fractalkine.
T9 construct: also called Fractalkine/CX3CL1; CX3CL1
T9 chemokine: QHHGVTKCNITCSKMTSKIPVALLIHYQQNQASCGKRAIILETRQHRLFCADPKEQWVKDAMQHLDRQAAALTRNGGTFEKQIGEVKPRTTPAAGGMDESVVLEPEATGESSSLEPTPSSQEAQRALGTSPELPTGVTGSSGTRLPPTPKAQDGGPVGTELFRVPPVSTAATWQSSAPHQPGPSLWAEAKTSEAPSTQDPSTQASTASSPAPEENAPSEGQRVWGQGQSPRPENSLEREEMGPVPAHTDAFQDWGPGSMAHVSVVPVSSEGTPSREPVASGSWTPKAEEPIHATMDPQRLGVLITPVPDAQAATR
The test is described as above.

Another test deals with T10, ELC.
T10 construct: also called ELC/MIP-3β/CCL19; CCL19
T10 chemokine: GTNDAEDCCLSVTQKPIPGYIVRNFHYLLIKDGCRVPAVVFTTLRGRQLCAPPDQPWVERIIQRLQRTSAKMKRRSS
The description is as above.

In a further test the target is T11, MCP-2.
T11 construct: also called MCP-2/CCL8; CCL8
T11 chemokine: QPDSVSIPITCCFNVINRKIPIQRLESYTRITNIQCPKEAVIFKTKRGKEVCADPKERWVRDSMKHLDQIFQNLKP
The description is as above.

Another test concerns the target T12, MCP-3.
T12 construct: also called MCP-3/CCL7; CCL7
The test is described as above.

In a further test the target is T13, human HCC-1/CCL14/CCL14a (human, UniProt Q16627 28-93).
T13 sequence: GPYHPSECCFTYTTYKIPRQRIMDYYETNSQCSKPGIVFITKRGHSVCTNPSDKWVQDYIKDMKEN
The description is as above.

For a further test, the target named is T14, human PARC/CCL18 (human, UniProt P55774 21-89).
T14 sequence: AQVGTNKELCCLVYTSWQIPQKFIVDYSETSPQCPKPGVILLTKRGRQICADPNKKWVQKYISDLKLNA
Described as above.

Another test has as its target T15, MDC.
T15 construct: also called MDC/CCL22; CCL22
T15 chemokine: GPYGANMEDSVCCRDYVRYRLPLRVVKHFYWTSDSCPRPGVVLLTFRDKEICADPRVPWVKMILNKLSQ
The test is described as above.

The target of a further test is T16, Eotaxin.
T16 construct: also called Eotaxin/CCL11; CCL11
T16 sequence (chemokine, as listed by the source): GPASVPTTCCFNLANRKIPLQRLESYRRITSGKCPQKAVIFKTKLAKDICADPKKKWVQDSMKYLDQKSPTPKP
The test is described as above.

The target in a further test is T17, human MCP-1/CCL2 (human, UniProt P13500 24-99).
T17 construct: also called Biotin-MCP1
T17 sequence (P13500 24-99 limits assumed): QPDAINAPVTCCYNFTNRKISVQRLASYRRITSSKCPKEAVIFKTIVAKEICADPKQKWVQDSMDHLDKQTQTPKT
Described as above.

Another test concerns the target T18, HCC-4.
T18 construct: also called HCC-4/CCL16; CCL16
T18 chemokine: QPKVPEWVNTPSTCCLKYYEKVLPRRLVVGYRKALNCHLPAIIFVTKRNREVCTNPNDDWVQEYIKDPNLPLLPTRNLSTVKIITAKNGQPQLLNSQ
Described as above.

The next test addresses T19, I-309.
T19 construct: also called I-309/CCL1; CCL1
T19 chemokine: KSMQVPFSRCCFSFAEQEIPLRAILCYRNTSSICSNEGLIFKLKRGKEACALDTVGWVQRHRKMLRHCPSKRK
The description is as above.

T12 sequence (chemokine, as listed by the source): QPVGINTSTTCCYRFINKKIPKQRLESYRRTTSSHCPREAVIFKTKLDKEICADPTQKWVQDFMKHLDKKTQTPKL
T1 sequence (P30882 24-91 limits assumed): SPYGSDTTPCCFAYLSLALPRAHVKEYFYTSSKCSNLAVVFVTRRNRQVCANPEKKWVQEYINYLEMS
T6 sequence (chemokine, as listed by the source): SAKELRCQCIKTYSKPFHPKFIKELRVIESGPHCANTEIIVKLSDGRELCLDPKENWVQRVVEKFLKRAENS

B1: monoclonal antibody 18P7E (antibody, V domains shown)
VH: QVQLKESGPGLVAPSQSLSITCTVSGFSLTGYGIHWVRQPPGKGLEWLGVIWPGGGTNYNSALMSRLNISKDNSKSQVFLKMNSLQTDDTAMYYCARGPLITTEVSMDYWGQGTSVTVSS
VL: QAVVTQESALTTSPGETVTLTCRSNTGAVTTSNYANWVQEKPDHLFTGLIGGTNNRAPGVPARFSGSLIGDKAALTITGAQTEDEAIYFCALWYSNHWVFGGGTKLTVLG
notes: also called MAb 18P7E
Turning to B1, the binding result with mouse RANTES/CCL5, with mouse MIP-1α/CCL3, with mouse MIP-1β/CCL4, with human HCC-2/MIP-1δ/CCL15, with human MPIF-1/CCL23 and in the test with IL-8 was “no binding (tested: unquantitated hybridoma supernatant)” in each case. Besides, the binding result with SDF, with MCP-4, in the test with Fractalkine, with ELC, in the test with MCP-2 and with MCP-3 was “no binding (tested: unquantitated hybridoma supernatant)” each time. Moreover, the binding result in the test with human HCC-1/CCL14/CCL14a, in the test with human PARC/CCL18, with MDC, with Eotaxin, with human MCP-1/CCL2 and in the test with HCC-4 was “no binding (tested: unquantitated hybridoma supernatant)” each time. The binding result in the test with I-309 is listed as “no binding (tested: unquantitated hybridoma supernatant)”.
